Reference: PMC3634753, “A Study of the Mechanism of the Chaperone-like Function of an scFv of Human Creatine Kinase by Computer Simulation” (PLoS ONE, 2013)

Assays:
Test in all cases: peptide or protein array; 12-mer HCK peptides, each shifted by one residue, synthesized as spots on nitrocellulose membrane; incubated with purified scFv-A4 in MP buffer (30 mM Tris-HCl, pH 7.6, 170 mM NaCl, 6.4 mM KCl, 0.05% Tween 20, 5% sucrose) overnight at 4°C; bound scFv electro-transferred onto PVDF and detected with anti-V5 antibody
Settings in all cases: both partners purified
[1] = biological target: T1, HCK peptide segment Thr313-Thr322 (Homo sapiens, UniProt P06732)
T1 construct: human creatine kinase (HCK), segment Thr313-Thr322 covered by the positive 12-mer spots K5-K14; Each spot held a 12-mer shifted by one residue; also called spots K5-K14; source: synthetic peptide, synthesized on nitrocellulose membrane as spots
T1 chain: TRLRLQKRGT

[2] = biological target: T2, HCK peptide segment Glu248-Leu257 (Homo sapiens, UniProt P06732)
T2 construct: human creatine kinase (HCK), segment Glu248-Leu257 covered by the positive 12-mer spots I3-I12; Each spot held a 12-mer shifted by one residue; also called spots I3-I12; source: synthetic peptide, synthesized on nitrocellulose membrane as spots
T2 chain: EVFRRFCVGL

[3] = biological target: T3, HCK peptide segment Lys265-Asn274 (Homo sapiens, UniProt P06732)
T3 construct: human creatine kinase (HCK), segment Lys265-Asn274 covered by the positive 12-mer spots I22-I29; Each spot held a 12-mer shifted by one residue; also called spots I22-I29; source: synthetic peptide, synthesized on nitrocellulose membrane as spots
T3 chain: KKAGHPFMWN

[4] = biological target: T4, HCK peptide segment Ser129-Lys138 (Homo sapiens, UniProt P06732)
T4 construct: human creatine kinase (HCK), segment Ser129-Lys138 covered by the positive 12-mer spots E3-E13; Each spot held a 12-mer shifted by one residue; also called spots E3-E13; source: synthetic peptide, synthesized on nitrocellulose membrane as spots
T4 chain: SRVRTGRSIK

[5] = biological target: T5, HCK peptide segment Lys170-Met179 (Homo sapiens, UniProt P06732)
T5 construct: human creatine kinase (HCK), segment Lys170-Met179 covered by the positive 12-mer spots F17-F21; Each spot held a 12-mer shifted by one residue; also called spots F17-F21; source: synthetic peptide, synthesized on nitrocellulose membrane as spots
T5 chain: KGKYYPLKSM

[6] = biological target: T6, HCK peptide segment Asn5-Tyr14 (Homo sapiens, UniProt P06732)
T6 construct: human creatine kinase (HCK), segment Asn5-Tyr14 covered by the positive 12-mer spots A2-A6; Each spot held a 12-mer shifted by one residue; also called spots A2-A6; source: synthetic peptide, synthesized on nitrocellulose membrane as spots
T6 chain: NTHNKFKLNY

Measured: binding result

B1: scFv-A4 (scFv, V domains shown)
VH: QVQLVQSGAEVKKPGSSVRVSCKASGGTFSSYAISWVRQAPGQGPEWMGGIIPIFGTANYAQKFQGRVTITADESTSTAYMELSSLRSEDTAVYYCAGSSGWSMSAFDIWGQGTMVTVSS
VL: SSELTQPPSVSVAPGKTARITCGGNNIGSKSVHWYQQKPGQAPVLVIYYDSDRPSGIPERFSGSNSGNTATLTISRVEAGDEADYYCQVWDSSSDHVVFGGGTKLTVL
notes: linker segment GLY112-LYS142; without the linker, the light chain is 100% and the heavy chain 93% identical to the Fab of PDB 2DD8; also called anti-human creatine kinase single chain antibody
binds: all assays above
